{
  "source": "patent US20240240140A1",
  "target": "mouse TLR5 (toll-like receptor 5) expressed on HEK293/mTLR5 cell line (mouse) (UniProt Q9JLF7)",
  "sequence (Q9JLF7 27-859)": "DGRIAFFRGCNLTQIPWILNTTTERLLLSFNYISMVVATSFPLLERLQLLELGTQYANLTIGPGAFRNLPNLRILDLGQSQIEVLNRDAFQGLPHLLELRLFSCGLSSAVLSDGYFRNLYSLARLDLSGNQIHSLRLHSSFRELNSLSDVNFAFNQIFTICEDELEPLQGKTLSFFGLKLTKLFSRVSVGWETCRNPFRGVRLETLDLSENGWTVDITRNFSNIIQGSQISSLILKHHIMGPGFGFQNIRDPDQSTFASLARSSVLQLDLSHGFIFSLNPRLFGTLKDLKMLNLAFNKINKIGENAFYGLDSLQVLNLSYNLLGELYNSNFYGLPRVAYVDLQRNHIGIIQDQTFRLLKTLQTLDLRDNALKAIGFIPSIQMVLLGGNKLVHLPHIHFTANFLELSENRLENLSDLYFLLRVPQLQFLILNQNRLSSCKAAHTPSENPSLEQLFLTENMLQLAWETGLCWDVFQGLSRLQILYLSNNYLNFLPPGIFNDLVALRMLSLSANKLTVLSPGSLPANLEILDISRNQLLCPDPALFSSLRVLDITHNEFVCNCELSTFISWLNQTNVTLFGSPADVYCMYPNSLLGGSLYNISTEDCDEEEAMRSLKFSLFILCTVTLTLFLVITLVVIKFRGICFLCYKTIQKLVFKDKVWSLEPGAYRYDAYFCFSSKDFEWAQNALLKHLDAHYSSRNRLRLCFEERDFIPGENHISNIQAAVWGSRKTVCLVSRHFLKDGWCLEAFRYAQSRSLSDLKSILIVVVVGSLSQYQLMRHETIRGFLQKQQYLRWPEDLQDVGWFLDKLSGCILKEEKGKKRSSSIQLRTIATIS",
  "assay": "cell-based or functional assay",
  "data": [
    {"substance": "sgFliC (Salmonella gallinarum-derived FliC, filament structural protein, expressed from psgFliC and secreted by attenuated Salmonella gallinarum SG4052) (from UniProt Q06972 1-494) (ligand)", "values": [
      {"measurement": "QUANTI-Blue SEAP assay using HEK293/mTLR5 cell line (TLR5 stimulation relative to FLA-ST)", "result": 2, "unit": "fold"}
    ]}
  ]
}
